According to US20190125833A1 (Five Prime, published 2019):

T1: Myostatin (UniProt O14793 267-375, limits assumed)
T1 sequence (looked up): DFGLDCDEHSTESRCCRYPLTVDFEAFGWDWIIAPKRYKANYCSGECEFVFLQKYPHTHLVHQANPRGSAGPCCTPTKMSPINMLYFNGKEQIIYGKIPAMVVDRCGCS

B1: hNOPE (1-957) ECD-FC (Fc fusion, not shown: a dimerising Fc or GST)
chain: ELLLPQETTVELSCGVGPLQVILGPEQAAVLNCSLGAAAAGPPTRVTWSKDGDTLLEHDHLHLLPNGSLWLSQPLAPNGSDESVPEAVGVIEGNYSCLAHGPLGVLASQTAVVKLATLADFSLHPESQTVEENGTARFECHIEGLPAPIITWEKDQVTLPEEPRLIVLPNGVLQILDVQESDAGPYRCVATNSARQHFSQEALLSVAHRGSLASTRGQDVVIVAAPENTTVVSGQSVVMECVASADPTPFVSWVRQDGKPISTDVIVLGRTNLLIANAQPWHSGVYVCRANKPRTRDFATAAAELRVLAAPAITQAPEALSRTRASTARFVCRASGEPRPALRWLHNGAPLRPNGRVKVQGGGGSLVITQIGLQDAGYYQCVAENSAGMACAAASLAVVVREGLPSAPTRVTATPLSSSAVLVAWERPEMHSEQIIGFSLHYQKARGMDNVEYQFAVNNDTTELQVRDLEPNTDYEFYVVAYSQLGASRTSTPALVHTLDDVPSAAPQLSLSSPNPSDIRVAWLPLPPSLSNGQVVKYKIEYGLGKEDQIFSTEVRGNETQLMLNSLQPNKVYRVRISAGTAAGFGAPSQWMHHRTPSMHNQSHVPFAPAELKVQAKMESLVVSWQPPPHPTQISGYKLYWREVGAEEEANGDRLPGGRGDQAWDVGPVRLKKKVKQYELTQLVPGRLYEVKLVAFNKHEDGYAAVWKGKTEKAPAPDMPIQRGPPLPPAHVHAESNSSTSIWLRWKKPDFTTVKIVNYTVRFSPWGLRNASLVTYYTSSGEDILIGGLKPFTKYEFAVQSHGVDMDGPFGSVVERSTLPDRPSTPPSDLRLSPLTPSTVRLHWCPPTEPNGEIVEYLILYSSNHTQPEHQWTLLTTQGNIFSAEVHGLESDTRYFFKMGARTEVGPGPFSRLQDVITLQEKLSDSLDMHSVT
B2: mNOPE (1-955) ECD-FC (Fc fusion, not shown: a dimerising Fc or GST)
chain: ELPLPQETTVKLSCDEGPLQVILGPEQAVVLDCTLGATAAGPPTRVTWSKDGDTVLEHENLHLLPNGSLWLSSPLEQEDSDDEEALRIWKVTEGSYSCLAHSPLGVVASQVAVVKLATLEDFSLHPESQIVEENGTARFECHTKGLPAPIITWEKDQVTVPEESRLITLPNGVLQILDVQDSDAGSYRCVATNSARQRFSQEASLTVALRGSLEATRGQDVVIVAAPENTTVVSGQSVVMECVASADPTPFVSWVRQDGKPISTDVIVLGRTNLLIASAQPRHSGVYVCRANKPRTRDFATAAAELRVLAAPAISQAPEALSRTRASTARFVCRASGEPRPALHWLHDGIPLRPNGRVKVQGGGGSLVITQIGLQDAGYYQCVAENSAGTACAAAPLAVVVREGLPSAPTRVTATPLSSSSVLVAWERPELHSEQIIGFSLHYQKARGVDNVEYQFAVNNDTTELQVRDLEPNTDYEFYVVAYSQLGASRTSSPALVHTLDDVPSAAPQLTLSSPNPSDIRVAWLPLPSSLSNGQVLKYKIEYGLGKEDQVFSTEVPGNETQLTLNSLQPNKVYRVRISAGTGAGYGVPSQWMQHRTPGVHNQSHVPFAPAELKVRAKMESLVVSWQPPPHPTQISGYKLYWREVGTEEEADGDRPPGGRGDQAWDVGPVRLKKKVKQYELTQLVPGRLYEVKLVAFNKHEDGYAAVWKGKTEKAPTPDLPIQRGPPLPPAHVHAESNSSTSIWLRWKKPDFTTVKIVNYTVRFGPWGLRNASLVTYYTSSGEDILIGGLKPFTKYEFAVQSHGVDMDGPFGSVVERSTLPDRPSTPPSDLRLSPLTPSTVRLHWCPPTEPNGEIVEYLILYSNNHTQPEHQWTLLTTEGNIFSAEVHGLESDTRYFFKMGARTEVGPGPFSRLQDVITLQKTFSDSLDVHAV

Biological target: T1, Myostatin
Experiment: cell-based or functional assay

Binder	IC50 of inhibition of myostatin dependent SMAD2/3 activation (luciferase reporter, HEK293, 0.1 nM myostatin) [nM]	fold difference of IC50 against hNOPE (1-620) ECD-FC [fold]	fold difference of IC50 against hNOPE (1-957) ECD-FC [fold]
B1	0.5		
B2	0.068	2.5	7
